Experiments:
Assay in all cases: SPR
Settings in all cases: both partners purified
[1] = target: T1, GST-peptide fusion protein D41
T1 construct: source: E. coli BL21 (DE3), GST-peptide fusion; not shown: GST, N-terminal, kept

[2] = target: T2, GST-peptide fusion protein D44
T2 construct: source: E. coli BL21 (DE3), GST-peptide fusion; not shown: GST, N-terminal, kept

[3] = target: T3, GST-peptide fusion protein D13
T3 construct: source: E. coli BL21 (DE3), GST-peptide fusion; not shown: GST, N-terminal, kept

B1: Human GLP-1R protein (receptor)
chain: RPQGATVSLWETVQKWREYRRQCQRSLTEDPPPATDLFCNRTFDEYACWPDGEPGSFVNVSCPWYLPWASSVPQGHVYRFCTAEGLWLQKDNSSLPWRDLSECEESKRGERSSPEE
Binder B1 has a Kd [1] of 5.19 µM, a Kd [2] of 6.78 µM and a Kd [3] of 8.58 µM.

— PMC12561408, “AI‐Driven De Novo Design of Ultra Long‐Acting GLP‐1 Receptor Agonists” (Advanced Science, 2025)
